This is an account of results in the supplement of paper PMC10567573.

B1: DCAF4 (parent)
chain: PGIDRPGMLCSFRIPGAWSCAWSL
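Note: lentivirally expressed fusions sorted by FACS into six bins by GFP to DsRed ratio, PSI derived from sequencing read proportions per bin multiplied by bin number.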

This series covers variants of B1. As to the kind of experiment: protein stability index of a GFP-peptide fusion (GPS, HEK-293T) (PSI 1-6); higher = more stable. Conditions: c terminus: a fixed tail appended.
Regarding PGIERPGMLCSFRIPGAWSCAWSL, the protein stability index amounted to 2.38.

Turning to PGINRPGMLCSFRIPGAWSCAWSL, the protein stability index is 2.05.

As for PGIQRPGMLCSFRIPGAWSCAWSL, the protein stability index came out at 2.42. The value for PGIYRPGMLCSFRIPGAWSCAWSL was 2.27; that for PGIIRPGMLCSFRIPGAWSCAWSL was 3.29; that for PGITRPGMLCSFRIPGAWSCAWSL was 2.56. The value for PGIWRPGMLCSFRIPGAWSCAWSL was 2.65.

PGIPRPGMLCSFRIPGAWSCAWSL: the protein stability index worked out at 2.56. Next, PGICRPGMLCSFRIPGAWSCAWSL: 2.61; PGIFRPGMLCSFRIPGAWSCAWSL: 2.74; PGIMRPGMLCSFRIPGAWSCAWSL: 1.91.

Turning to PGIDRPGMLCTFRIPGAWSCAWSL, the protein stability index worked out at 1.56. Next, PGIDRPGMLCLFRIPGAWSCAWSL: 2.81; PGIDRPGMLCEFRIPGAWSCAWSL: 2.68. The value for PGIDRPGMLCPFRIPGAWSCAWSL was 3.14; that for PGIDRPGMLCQFRIPGAWSCAWSL was 2.82; that for PGIDRPGMLCGFRIPGAWSCAWSL was 3.07.

As for PGIDRPGMLCVFRIPGAWSCAWSL, the protein stability index was 1.85.

As for PGIDRPGMLCHFRIPGAWSCAWSL, the protein stability index came out at 3.42. Regarding PGIDRPGMLCMFRIPGAWSCAWSL, the protein stability index was found to be 2.95. Take PGIDRPGMLCKFRIPGAWSCAWSL: the protein stability index turned out to be 2.81. The value for PGIDRPGMLCRFRIPGAWSCAWSL was 3.98. Take PGIDRPGMLCAFRIPGAWSCAWSL: the protein stability index amounted to 3.01. The value for PGIDRPGMLCCFRIPGAWSCAWSL was 2.19. In the case of PGIDRPGMLCDFRIPGAWSCAWSL, the protein stability index was 2.44. The value for PGIDRPGMLCFFRIPGAWSCAWSL was 3.19.

In the case of PGIDRPGMLCYFRIPGAWSCAWSL, the protein stability index turned out to be 3.16.

As to PGWDRPGMLCSFRIPGAWSCAWSL, the protein stability index is 3.75. Turning to PGPDRPGMLCSFRIPGAWSCAWSL, the protein stability index worked out at 2.33.

Take PGVDRPGMLCSFRIPGAWSCAWSL: the protein stability index turned out to be 2.56. Next, PGTDRPGMLCSFRIPGAWSCAWSL: 2.93; PGSDRPGMLCSFRIPGAWSCAWSL: 2.97; PGQDRPGMLCSFRIPGAWSCAWSL: 3.25. Next, PGNDRPGMLCSFRIPGAWSCAWSL: 4.44; PGIDRPRMLCSFRIPGAWSCAWSL: 2.05. The value for PGIDRPPMLCSFRIPGAWSCAWSL was 2.83. With PGIDRPYMLCSFRIPGAWSCAWSL, the protein stability index amounted to 2.28.

In the case of PGIDRPAMLCSFRIPGAWSCAWSL, the protein stability index was found to be 2.7.

With PGIDRPVMLCSFRIPGAWSCAWSL, the protein stability index came to 2.84. The value for PGIDRPWMLCSFRIPGAWSCAWSL was 2.23; that for PGIDRPSMLCSFRIPGAWSCAWSL was 3.09; that for PGIDRPHMLCSFRIPGAWSCAWSL was 2.09. For the variant PGIDRPNMLCSFRIPGAWSCAWSL, the protein stability index is 2.67.

On to PGIDRPTMLCSFRIPGAWSCAWSL, for which the protein stability index is 3.46. Next, PGIDRPIMLCSFRIPGAWSCAWSL: 3.13; PGIDRPQMLCSFRIPGAWSCAWSL: 2.63; PGIDRPFMLCSFRIPGAWSCAWSL: 4.52. Turning to PGIDRPMMLCSFRIPGAWSCAWSL, the protein stability index was found to be 2.31. With PGIDRPDMLCSFRIPGAWSCAWSL, the protein stability index stood at 2.11. The value for PGIDRPKMLCSFRIPGAWSCAWSL was 2.7. Next, PGIDDPGMLCSFRIPGAWSCAWSL: 3.46; PGIDFPGMLCSFRIPGAWSCAWSL: 3.57. The value for PGIDYPGMLCSFRIPGAWSCAWSL was 2.76; that for PGIDCPGMLCSFRIPGAWSCAWSL was 2.89.

Turning to PGIDNPGMLCSFRIPGAWSCAWSL, the protein stability index turned out to be 3.74.

For the variant PGIDPPGMLCSFRIPGAWSCAWSL, the protein stability index is 2.75. As to PGIDEPGMLCSFRIPGAWSCAWSL, the protein stability index came to 3.11. Next, PGIDIPGMLCSFRIPGAWSCAWSL: 1.87; PGIDAPGMLCSFRIPGAWSCAWSL: 2.47; PGIDGPGMLCSFRIPGAWSCAWSL: 2.74. Next, PGIDMPGMLCSFRIPGAWSCAWSL: 3.37. The value for PGIDQPGMLCSFRIPGAWSCAWSL was 3.37; that for PGIDKPGMLCSFRIPGAWSCAWSL was 2.04. For the variant PGIDLPGMLCSFRIPGAWSCAWSL, the protein stability index came out at 2.46.

For PGIDVPGMLCSFRIPGAWSCAWSL, the protein stability index was determined as 1.94. Next, PGIDRAGMLCSFRIPGAWSCAWSL: 3.48; PGIDRQGMLCSFRIPGAWSCAWSL: 3.62. For PGIDRSGMLCSFRIPGAWSCAWSL, the protein stability index is 2.83. Next, PGIDRYGMLCSFRIPGAWSCAWSL: 3.44. Next, PGIDREGMLCSFRIPGAWSCAWSL: 1.44. The value for PGIDRVGMLCSFRIPGAWSCAWSL was 2.93; that for PGIDRKGMLCSFRIPGAWSCAWSL was 2.83. Regarding PGIDRGGMLCSFRIPGAWSCAWSL, the protein stability index amounted to 3.28. The value for PGIDRMGMLCSFRIPGAWSCAWSL was 4.05; that for PGIDRNGMLCSFRIPGAWSCAWSL was 2.76; that for PGIDRHGMLCSFRIPGAWSCAWSL was 2.66.

For PGIDRRGMLCSFRIPGAWSCAWSL, the protein stability index was 3.89.

On to PGIDRFGMLCSFRIPGAWSCAWSL, for which the protein stability index was determined as 3.41. As for PGIDRTGMLCSFRIPGAWSCAWSL, the protein stability index came to 2.65. As for PGIDRCGMLCSFRIPGAWSCAWSL, the protein stability index amounted to 2.65.

As for PGIDRPGMSCSFRIPGAWSCAWSL, the protein stability index came out at 2.32.

As for PGIDRPGMDCSFRIPGAWSCAWSL, the protein stability index worked out at 3.26. Next, PGIDRPGMTCSFRIPGAWSCAWSL: 1.7; PGIDRPGMHCSFRIPGAWSCAWSL: 2.92; PGIDRPGMYCSFRIPGAWSCAWSL: 2.31. Next, PGIDRPGMICSFRIPGAWSCAWSL: 3.09; PGIDRPGMPCSFRIPGAWSCAWSL: 2.5; PGIDRPGMECSFRIPGAWSCAWSL: 2.62. Next, PGIDRPGMRCSFRIPGAWSCAWSL: 3.61; PGIDRPGMVCSFRIPGAWSCAWSL: 2.85; PGIDRPGMGCSFRIPGAWSCAWSL: 1.77. On to PGIDRPGMKCSFRIPGAWSCAWSL, for which the protein stability index turned out to be 3.08. For the variant PGIDRPGMQCSFRIPGAWSCAWSL, the protein stability index turned out to be 1.76. Next, PGIDRPGMFCSFRIPGAWSCAWSL: 2.7.
